Measured values as given in paper PMC5037575.

Molecular target: PB2 polymerase subunit fused to Gluc1, of recombinant WSN virus (WSN-PB2-Gluc1) (UniProt P03427)
Conditions: parent: est. 100; read off a plot

Substance: Gluc2-DDX19B wild type (from UniProt Q9UMR2) R428Q
- percent of parent: 68%
